Reference: the supplement of paper PMC9112550, “Optimization of the antimicrobial peptide Bac7 by deep mutational scanning” (BMC Biology, 2022)

System: Escherichia coli TOP10
Assay: shrunken log2 fold change of peptide-encoding DNA abundance (4.5 h post-induction vs induction); higher = less antimicrobial activity (less host growth inhibition)
Conditions: time post-induction: 4.5 h; library: site-saturation at positions 5, 18, 19, 20
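Further: peptides expressed intracellularly from a pBAD plasmid library in pooled LB shake-flask culture, induced with 0.3% L-arabinose, DNA abundance read by NGS, three biological replicates, DESeq2 with apeglm shrinkage.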

First: RRIRWRPPRLPRPRPRPWFAPRP
Second: RRIRKRPPRLPRPRPRPRHNPRP
The “shrunken log2 fold change” value of the first is higher: 0.135 for the first, -0.241 for the second.

RRIRCRPPRLPRPRPRPIDEPRP and RRIRCRPPRLPRPRPRPRLTPRP are within 0.2 log units of each other in “shrunken log2 fold change” value: -0.0366 for the first, 0.0689 for the second.

First: RRIRMRPPRLPRPRPRPQSYPRP
Second: RRIRERPPRLPRPRPRPLVYPRP
The “shrunken log2 fold change” value of the first is higher: 0.00618 for the first, -0.309 for the second.

Compared with RRIRLRPPRLPRPRPRPCWFPRP, RRIRLRPPRLPRPRPRPAFEPRP is higher in “shrunken log2 fold change” value: -0.21 for the first, 0.36 for the second.

RRIRQRPPRLPRPRPRPVYWPRP and RRIRSRPPRLPRPRPRPLSGPRP are within 0.2 log units of each other in “shrunken log2 fold change” value: 0.0694 for the first, -0.0801 for the second.

First: RRIRARPPRLPRPRPRPRMHPRP
Second: RRIRKRPPRLPRPRPRPAMRPRP
The “shrunken log2 fold change” value of the first is lower: 0.324 for the first, 1.33 for the second.

RRIRNRPPRLPRPRPRPNVVPRP and RRIRDRPPRLPRPRPRPCCQPRP are within 0.2 log units of each other in “shrunken log2 fold change” value: -0.122 for the first, -0.0183 for the second.

First: RRIRIRPPRLPRPRPRPMQMPRP
Second: RRIRLRPPRLPRPRPRPNKKPRP
The “shrunken log2 fold change” value of the first is lower: -0.52 for the first, -0.256 for the second.

Compared with RRIRVRPPRLPRPRPRPPPLPRP, RRIRKRPPRLPRPRPRPSYAPRP is lower in “shrunken log2 fold change” value: 0.669 for the first, 0.0314 for the second.

Going from RRIRTRPPRLPRPRPRPYLGPRP to RRIRSRPPRLPRPRPRPRLDPRP, the “shrunken log2 fold change” value rises from -0.00172 to 0.25.

Compared with RRIRYRPPRLPRPRPRPFWKPRP, RRIRDRPPRLPRPRPRPVQNPRP is higher in “shrunken log2 fold change” value: 0.226 for the first, 0.577 for the second.

RRIRDRPPRLPRPRPRPNSHPRP and RRIRFRPPRLPRPRPRPEVLPRP are within 0.2 log units of each other in “shrunken log2 fold change” value: 0.0526 for the first, -0.0031 for the second.

First: RRIRDRPPRLPRPRPRPAHFPRP
Second: RRIRGRPPRLPRPRPRPDPQPRP
The “shrunken log2 fold change” value of the first is lower: 0.358 for the first, 0.694 for the second.

RRIRDRPPRLPRPRPRPGPNPRP and RRIRFRPPRLPRPRPRPGFWPRP are within 0.2 log units of each other in “shrunken log2 fold change” value: 0.0518 for the first, 0.24 for the second.

Going from RRIRNRPPRLPRPRPRPGHAPRP to RRIRDRPPRLPRPRPRPCPHPRP, the “shrunken log2 fold change” value falls from 0.32 to -0.228.

Compared with RRIRNRPPRLPRPRPRPNSPPRP, RRIRGRPPRLPRPRPRPMLNPRP is higher in “shrunken log2 fold change” value: 0.0941 for the first, 0.477 for the second.

RRIRIRPPRLPRPRPRPKRCPRP and RRIRQRPPRLPRPRPRPIKPPRP are within 0.2 log units of each other in “shrunken log2 fold change” value: -0.00138 for the first, 0.0492 for the second.

Going from RRIRFRPPRLPRPRPRPQFVPRP to RRIRKRPPRLPRPRPRPLEEPRP, the “shrunken log2 fold change” value rises from -0.434 to 1.76.

First: RRIRKRPPRLPRPRPRPKVNPRP
Second: RRIRIRPPRLPRPRPRPPDGPRP
The “shrunken log2 fold change” value of the first is lower: 0.0581 for the first, 1.84 for the second.

Compared with RRIRARPPRLPRPRPRPYGMPRP, RRIRSRPPRLPRPRPRPWPEPRP is higher in “shrunken log2 fold change” value: -0.684 for the first, 0.519 for the second.

RRIRHRPPRLPRPRPRPFMDPRP and RRIRERPPRLPRPRPRPCFEPRP are within 0.2 log units of each other in “shrunken log2 fold change” value: -0.436 for the first, -0.258 for the second.

RRIRVRPPRLPRPRPRPQYKPRP and RRIRDRPPRLPRPRPRPFQMPRP are within 0.2 log units of each other in “shrunken log2 fold change” value: -0.527 for the first, -0.57 for the second.

Compared with RRIRMRPPRLPRPRPRPHMMPRP, RRIRCRPPRLPRPRPRPNFMPRP is lower in “shrunken log2 fold change” value: -0.135 for the first, -0.448 for the second.

RRIRFRPPRLPRPRPRPVGHPRP and RRIRTRPPRLPRPRPRPCWFPRP are within 0.2 log units of each other in “shrunken log2 fold change” value: -0.0219 for the first, -0.21 for the second.

RRIRERPPRLPRPRPRPQSSPRP and RRIRERPPRLPRPRPRPRHIPRP are within 0.2 log units of each other in “shrunken log2 fold change” value: -0.533 for the first, -0.643 for the second.

Going from RRIRDRPPRLPRPRPRPGIAPRP to RRIRDRPPRLPRPRPRPPPNPRP, the “shrunken log2 fold change” value rises from 0.37 to 0.84.

Going from RRIRVRPPRLPRPRPRPIYEPRP to RRIRYRPPRLPRPRPRPQNKPRP, the “shrunken log2 fold change” value falls from -0.184 to -0.969.

RRIRVRPPRLPRPRPRPLWVPRP and RRIRQRPPRLPRPRPRPQCIPRP are within 0.2 log units of each other in “shrunken log2 fold change” value: -0.147 for the first, -0.0582 for the second.

RRIRYRPPRLPRPRPRPREMPRP and RRIRIRPPRLPRPRPRPLEKPRP are within 0.2 log units of each other in “shrunken log2 fold change” value: -0.126 for the first, -0.0295 for the second.

Compared with RRIRMRPPRLPRPRPRPMCLPRP, RRIRFRPPRLPRPRPRPDTGPRP is lower in “shrunken log2 fold change” value: 0.292 for the first, -0.356 for the second.

RRIRMRPPRLPRPRPRPCENPRP and RRIRVRPPRLPRPRPRPWHEPRP are within 0.2 log units of each other in “shrunken log2 fold change” value: 0.0192 for the first, -0.127 for the second.

RRIRYRPPRLPRPRPRPPASPRP and RRIRARPPRLPRPRPRPGVQPRP are within 0.2 log units of each other in “shrunken log2 fold change” value: 0.249 for the first, 0.0878 for the second.

First: RRIRRRPPRLPRPRPRPYGEPRP
Second: RRIRDRPPRLPRPRPRPDWRPRP
The “shrunken log2 fold change” value of the first is lower: -0.0212 for the first, 0.183 for the second.

RRIRGRPPRLPRPRPRPWAKPRP and RRIRRRPPRLPRPRPRPIESPRP are within 0.2 log units of each other in “shrunken log2 fold change” value: -0.0167 for the first, 0.0332 for the second.

RRIRGRPPRLPRPRPRPSDHPRP and RRIRCRPPRLPRPRPRPDWQPRP are within 0.2 log units of each other in “shrunken log2 fold change” value: 0.0544 for the first, -0.0213 for the second.

Going from RRIRTRPPRLPRPRPRPQNMPRP to RRIRWRPPRLPRPRPRPIVGPRP, the “shrunken log2 fold change” value rises from -0.654 to -0.0113.

First: RRIRVRPPRLPRPRPRPVRWPRP
Second: RRIRHRPPRLPRPRPRPVWYPRP
The “shrunken log2 fold change” value of the first is higher: 0.805 for the first, 0.00395 for the second.

First: RRIRYRPPRLPRPRPRPWWFPRP
Second: RRIRMRPPRLPRPRPRPGKGPRP
The “shrunken log2 fold change” value of the first is lower: -0.195 for the first, 0.0403 for the second.

Compared with RRIRIRPPRLPRPRPRPNDTPRP, RRIRYRPPRLPRPRPRPHPPPRP is higher in “shrunken log2 fold change” value: -1.01 for the first, 0.374 for the second.

Compared with RRIRSRPPRLPRPRPRPRMQPRP, RRIRLRPPRLPRPRPRPAGKPRP is lower in “shrunken log2 fold change” value: 0.108 for the first, -0.132 for the second.

RRIRQRPPRLPRPRPRPPPEPRP and RRIRDRPPRLPRPRPRPERHPRP are within 0.2 log units of each other in “shrunken log2 fold change” value: 0.952 for the first, 1.06 for the second.

First: RRIRFRPPRLPRPRPRPTCSPRP
Second: RRIRVRPPRLPRPRPRPRCEPRP
The “shrunken log2 fold change” value of the first is lower: -0.0827 for the first, 0.133 for the second.

RRIRHRPPRLPRPRPRPPQQPRP and RRIRPRPPRLPRPRPRPGAPPRP are within 0.2 log units of each other in “shrunken log2 fold change” value: 0.6 for the first, 0.536 for the second.

RRIRLRPPRLPRPRPRPWMGPRP and RRIRCRPPRLPRPRPRPHSDPRP are within 0.2 log units of each other in “shrunken log2 fold change” value: -0.363 for the first, -0.412 for the second.

RRIRHRPPRLPRPRPRPKFGPRP and RRIRTRPPRLPRPRPRPQPAPRP are within 0.2 log units of each other in “shrunken log2 fold change” value: 0.0962 for the first, 0.0787 for the second.

RRIRLRPPRLPRPRPRPLTIPRP and RRIRQRPPRLPRPRPRPFNCPRP are within 0.2 log units of each other in “shrunken log2 fold change” value: -0.0053 for the first, -0.0275 for the second.

Compared with RRIRIRPPRLPRPRPRPKVEPRP, RRIRLRPPRLPRPRPRPVRWPRP is higher in “shrunken log2 fold change” value: 0.195 for the first, 0.928 for the second.

RRIRYRPPRLPRPRPRPHGEPRP and RRIRERPPRLPRPRPRPWIQPRP are within 0.2 log units of each other in “shrunken log2 fold change” value: 0.0796 for the first, -0.0122 for the second.

RRIRHRPPRLPRPRPRPWNPPRP and RRIRERPPRLPRPRPRPINAPRP are within 0.2 log units of each other in “shrunken log2 fold change” value: -0.221 for the first, -0.129 for the second.

Compared with RRIRWRPPRLPRPRPRPGFHPRP, RRIRNRPPRLPRPRPRPYAQPRP is lower in “shrunken log2 fold change” value: -0.0866 for the first, -0.55 for the second.

RRIRCRPPRLPRPRPRPQRKPRP and RRIRPRPPRLPRPRPRPFADPRP are within 0.2 log units of each other in “shrunken log2 fold change” value: 0.203 for the first, 0.174 for the second.

RRIRYRPPRLPRPRPRPKMQPRP and RRIRNRPPRLPRPRPRPHTQPRP are within 0.2 log units of each other in “shrunken log2 fold change” value: -0.344 for the first, -0.328 for the second.

RRIRCRPPRLPRPRPRPFVRPRP and RRIRFRPPRLPRPRPRPIVRPRP are within 0.2 log units of each other in “shrunken log2 fold change” value: -0.141 for the first, -0.0797 for the second.

Compared with RRIRKRPPRLPRPRPRPNVGPRP, RRIRFRPPRLPRPRPRPSHQPRP is lower in “shrunken log2 fold change” value: -0.0151 for the first, -0.229 for the second.

In the case of RRIRNRPPRLPRPRPRPKFFPRP, the “shrunken log2 fold change” value is reported as -0.298.
